Laboratory results published in patent US20100136710A1.

Target: 3′-end processing factors
Experiment: immunoprecipitation under standard salt conditions

percent of the 3′-end processing factors associated: < 1%
Substance: human tRNA splicing endonuclease
